# Key:
# [1] = target: rhIR protein (R&D Systems, cat No 1544-IR/CF) (human) (UniProt P06213); assay: ELISA, coated rh Insulin R, 5 ug/ml
# [2] = target: rhIGF-1R protein (R&D Systems, Cat No 391-GR) (human) (UniProt P08069); assay: ELISA, coated rh IGF-1R, 5 ug/ml
# [3] = target: rmIGF-1R protein (R&D Systems, cat No 6630-GR/Fc) (murine) (UniProt Q60751); assay: ELISA, coated rm IGF-1R, 5 ug/ml
# rmIGF-1R protein (R&D Systems, cat No 6630-GR/Fc) (murine), sequence (Q60751 31-936): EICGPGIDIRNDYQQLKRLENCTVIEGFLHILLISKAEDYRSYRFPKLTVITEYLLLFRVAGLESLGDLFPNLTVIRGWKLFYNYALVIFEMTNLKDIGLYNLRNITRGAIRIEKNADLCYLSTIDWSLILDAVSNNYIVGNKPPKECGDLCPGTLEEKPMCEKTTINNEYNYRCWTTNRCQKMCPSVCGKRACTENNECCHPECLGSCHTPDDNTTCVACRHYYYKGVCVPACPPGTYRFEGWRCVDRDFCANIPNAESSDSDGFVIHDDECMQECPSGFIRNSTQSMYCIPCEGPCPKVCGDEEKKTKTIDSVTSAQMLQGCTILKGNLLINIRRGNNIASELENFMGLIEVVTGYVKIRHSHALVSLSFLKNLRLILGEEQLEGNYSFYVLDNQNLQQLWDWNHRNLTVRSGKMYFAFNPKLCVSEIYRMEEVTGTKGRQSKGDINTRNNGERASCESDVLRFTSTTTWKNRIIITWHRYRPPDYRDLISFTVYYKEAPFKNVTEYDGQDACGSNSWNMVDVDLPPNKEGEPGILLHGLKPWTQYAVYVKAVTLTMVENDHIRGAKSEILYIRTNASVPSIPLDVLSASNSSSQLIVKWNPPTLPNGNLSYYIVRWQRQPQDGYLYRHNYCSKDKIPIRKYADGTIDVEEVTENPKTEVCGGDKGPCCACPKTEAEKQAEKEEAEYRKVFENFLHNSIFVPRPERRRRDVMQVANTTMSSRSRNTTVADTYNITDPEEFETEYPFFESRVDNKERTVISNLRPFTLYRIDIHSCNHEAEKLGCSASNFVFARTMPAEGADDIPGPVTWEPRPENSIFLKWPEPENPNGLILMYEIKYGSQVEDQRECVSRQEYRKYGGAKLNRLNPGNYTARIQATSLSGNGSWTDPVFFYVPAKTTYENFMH
# rhIR protein (R&D Systems, cat No 1544-IR/CF) (human), sequence (P06213 other isoform, or with tags, fused parts or gaps limits assumed): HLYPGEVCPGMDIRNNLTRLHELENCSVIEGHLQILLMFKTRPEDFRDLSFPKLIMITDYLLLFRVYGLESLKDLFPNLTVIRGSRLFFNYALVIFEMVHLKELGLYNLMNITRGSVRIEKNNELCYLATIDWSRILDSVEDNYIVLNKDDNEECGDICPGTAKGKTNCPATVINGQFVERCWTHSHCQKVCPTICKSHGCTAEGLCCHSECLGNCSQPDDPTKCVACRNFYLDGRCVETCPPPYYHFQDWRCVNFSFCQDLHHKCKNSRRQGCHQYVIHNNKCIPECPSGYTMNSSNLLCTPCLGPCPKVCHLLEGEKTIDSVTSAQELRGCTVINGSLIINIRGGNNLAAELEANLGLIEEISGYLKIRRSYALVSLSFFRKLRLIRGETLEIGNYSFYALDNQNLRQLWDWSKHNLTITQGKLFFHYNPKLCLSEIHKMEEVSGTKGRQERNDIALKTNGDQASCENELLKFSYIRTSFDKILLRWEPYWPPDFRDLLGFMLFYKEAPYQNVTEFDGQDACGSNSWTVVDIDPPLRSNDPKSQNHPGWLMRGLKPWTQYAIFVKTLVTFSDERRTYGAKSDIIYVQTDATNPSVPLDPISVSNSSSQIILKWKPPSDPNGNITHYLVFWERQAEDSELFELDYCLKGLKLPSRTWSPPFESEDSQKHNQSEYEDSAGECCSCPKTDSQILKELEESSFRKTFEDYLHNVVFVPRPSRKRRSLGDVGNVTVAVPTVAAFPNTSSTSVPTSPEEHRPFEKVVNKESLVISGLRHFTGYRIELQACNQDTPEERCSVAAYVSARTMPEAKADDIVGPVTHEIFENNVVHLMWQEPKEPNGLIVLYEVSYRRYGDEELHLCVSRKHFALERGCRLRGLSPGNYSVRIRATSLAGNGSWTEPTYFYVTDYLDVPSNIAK
substance,measurement,setting,value
mIgG1 (antibody),D.O 450 nm,[1],0.127 D.O 450 nm
same,D.O 450 nm,[2],0.093 D.O 450 nm
same,D.O 450 nm,[3],0.116 D.O 450 nm

# — patent publication US20170267766A1
